The experiment addresses His-tagged ectodomains of hFcγRIIIA variant V158 (human) (UniProt P08637). The experiment in a line: SPR (ProteON), His-tagged hFcγRIIIA V158 ectodomains on chip, mAb injected.

Sequence of His-tagged ectodomains of hFcγRIIIA variant V158 (human) (P08637 other isoform, or with tags, fused parts or gaps mutant): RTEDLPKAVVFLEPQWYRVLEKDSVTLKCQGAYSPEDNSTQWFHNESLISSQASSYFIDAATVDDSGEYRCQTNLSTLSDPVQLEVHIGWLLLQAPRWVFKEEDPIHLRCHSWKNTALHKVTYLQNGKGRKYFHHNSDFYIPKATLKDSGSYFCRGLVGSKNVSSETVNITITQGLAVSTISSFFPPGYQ

Chimeric 3G8 hIgG1 (antibody) yielded a Kd of 2.1 nM, a koff of 0.00021 s⁻¹ and a kon of 300000 M⁻¹ s⁻¹.
The matching figures for “Chimeric 3G8 hIgG1 N297A format (antibody)”: 2.88 nM, 0.0003 s⁻¹ and 110000 M⁻¹ s⁻¹.
